Test results: PMC11840924, “Identifying Allosteric Hotspots in Mycobacterium tuberculosis cAMP Receptor Protein through Structural Homology” (Biochemistry, 2025)

What was measured:
[1] = target: T1, CRPMTB wildtype (Mycobacterium tuberculosis, UniProt P9WMH3 1-224); assay: fluorescence anisotropy; 1 mM cAMP; specific 1:1 transition; 75 mM KCl, 50 mM HEPES, 1 mM EDTA, pH 7.6; […]; temperature not stated; conditions: protein: recombinant; tags: His-tag (pET-3a); chain copies: 2; label: fluorescein; blunt
T1 sequence: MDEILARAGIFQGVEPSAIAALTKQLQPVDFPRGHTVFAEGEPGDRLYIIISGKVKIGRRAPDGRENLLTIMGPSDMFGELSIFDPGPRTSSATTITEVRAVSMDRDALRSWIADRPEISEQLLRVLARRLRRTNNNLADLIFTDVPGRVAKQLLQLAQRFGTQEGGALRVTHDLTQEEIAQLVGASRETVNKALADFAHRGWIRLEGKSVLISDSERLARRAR

[2] = target: T1, CRPMTB wildtype; assay: fluorescence anisotropy; no cAMP; specific 1:1 transition; 75 mM KCl, 50 mM HEPES, 1 mM EDTA, pH 7.6; […]; temperature not stated; conditions: protein: recombinant; tags: His-tag (pET-3a); chain copies: 2; label: fluorescein; blunt

B1: serC32 full-site promoter (dsDNA)
DNA 1: GCGCGTAGTGTGAACAAGCTCACATGCAAGCC
DNA 2: GGCTTGCATGTGAGCTTGTTCACACTACGCGC
- Ka [1]: 2.81 ± 0.01 10^8 M-1
- Ka [2]: 1.87 ± 0.01 10^8 M-1
